Assay results published in patent US20250057951A1, “DISCERNIBLE CELL SURFACE PROTEIN VARIANTS OF CD117 FOR USE IN CELL THERAPY” (UNIVERSITÄT BASEL, priority 2021, published 2025).

Assays:
CD117 = test: Blocking of SCF-induced CD117 phosphorylation (Tyr719 ELISA), wild type TF-1 cells; type: cell-based, human; conditions: 0.5 ug/mL antibody or 500 nM avapritinib; 100 ng/ml SCF 5 minutes
variants of CD117 = test: Blocking of SCF-induced CD117 phosphorylation (Tyr719 ELISA), TF-1 cells with CD117 variants; type: cell-based, human; conditions: 0.5 μg/ml antibody 30 minutes; 100 ng/ml SCF 5 minutes; same for E73K, E73Y, S123F (data not shown)
CD117+ myeloid cells = test: Depletion experiment in NSG mice with E73K gene-edited HSPCs; type: in vivo; conditions: 25 mg/kg i.v. days 8, 10, 12, 14; 16 weeks; vs isotype control
Protocol: In another experiment, NSG mice (Jackson Laboratories) were sub-lethally irradiated one day before injection with 1 Mio gene-edited HSPCs carrying a E73K variant of CD117. 8, 10, 12 and 14 days after cell injection mice received 25 mg/kg antibody Refmab #1-Bert or 25 mg/kg isotope control antibody i.v. per dose. 16 weeks later the mice were euthanized, and blood, spleen and bone marrow were analyzed by FACS.
CD117+ myeloid cells were identified by FACS as live/hCD45+/CD33+/CD117+. […] Clone 104D2 was used as an expression control. Cells were classified as not edited (104D2+ and SR-1+) or E73K edited (104D2+ but SR-1−) based on double staining with anti-CD117 clone SR-1 and anti-CD117 clone 104D2.

human HSCs = test: HSC depletion in NBSGW mice engrafted with human HSPCs; type: in vivo; conditions: 25 mg/kg i.v. days 8, 10, 12, 14; analysis 16 weeks later; vs isotype control; live/hCD45+/CD34+/CD38−/CD45RA−/CD90+
Protocol: (§1) Depletion of human HSCs in mice using various mAbs was adapted from Pang et al. (Blood (2019) 133:2069-78).
NBSGW mice (Jackson Laboratories) were injected with 1 Mio HSPCs. 8, 10, 12 and 14 days after cell injection mice received 25 mg/kg antibody Refmab #1-Bert per dose i.v. 16 weeks later the mice were euthanized and blood, spleen and bone marrow were analysed by FACS. […] HSCs were identified by FACS as live/hCD45+/CD34+/CD38−/CD45RA−/CD90+.

CD34+ progenitor cells = test: Additional HSC depletion experiment in NBSGW mice with edited HSPCs; type: in vivo; conditions: 4 mg/kg i.v. days 7, 9, 11, 12, 16 weeks, vs isotype control
Protocol: as §1
NBSGW mice (Jackson Laboratories) were injected with 1 Mio HSPCs from 2 different donors carrying a E73K, S123K or D121K variant of CD117. Control groups of mice received unedited electroporation control HSPCs. 7, 9, 11 and 12 days after cell injection mice received 4 mg/kg antibody Refmab #1-Bert per dose i.v. 16 weeks later the mice were euthanized and blood, spleen and bone marrow were analyzed by FACS. To identify unedited and edited cells the CD117-specific antibody clones 104D2 and SR-1 were used. […] Cells were classified as unedited (104D2+ and SR-1+) or edited (104D2+ but SR-1−) based on double staining with both anti-CD117 clones.

B1: Refmab #1-Bert: improved version of Refmab #1, VH SEQ ID 15, VL SEQ ID 63 (antibody, V domains shown)
VH: QVQLQQPGAELVKPGASVKMSCKASGYTFTSYNMHWVKQTPGQGLEWIGVIYSGNGDTSYNQKFKGKATLTADKSSSTAYMQINSLTSEDSAVYYCARERDTRFGNWGQGTLVTVSA
VL: EIVLTQSPSSLSASVGDRVTITCRASESVDIYGESFMHWYQQKPGKAPKLLIYLASNLESGVPSRFSGSGSGTDFTLTISSLQPEDFATYYCQQNKEEPYTFGQGTKLEIKRTV
modifications: Refmab #1 VH
For B1, the “blocking of SCF-induced phosphorylation, wild type cells” value (CD117) was “blocked”, the “blocking of SCF-dependent CD117 phosphorylation, D121K and S123K variants” value (variants of CD117) was “unaffected” and the “effect on E73K variant CD117+ myeloid cells in bone marrow” value (CD117+ myeloid cells) was “enrichment of E73K variant cells”. For the same molecule, the “effect on unedited CD117+ myeloid cells in bone marrow” value (CD117+ myeloid cells) was “depletion of unedited cells”, the “bone marrow HSC depletion” value (human HSCs) was “in vivo depletion of HSCs” and the “effect on E73K, D121K and S123K-edited cells” value (CD34+ progenitor cells) was “enrichment of E73K, D121K and S123K-edited variant cells”. For the same molecule, the “effect on unedited CD34+ progenitor cells” value (CD34+ progenitor cells; live/hCD45+/CD34+/CD38−) was “depletion of unedited CD34+ progenitor cells”.
